{
  "source": "patent US20070258982A1",
  "about": "(Pfizer, published 2007)",
  "binders": {"B1": {"name": "062G05 scFv (non-germlined) (scFv)", "scFv": "QVQLVESGAEVKKPGASVKVSCKASGYTFTSYGISWVRQAPGQGLEWMGWISAYTGNTNYAQKFQGRVTMTTDTSTSTAYMELRSLRSDDTAVYYCARDRGYYDAFDIWGQGTLVTVSSGGGGSGGGGSGGGGSDIQMTQSPSTLSASIGDRVTITCRASEGIYHWLAWYQQKPGKAPKLLIYKASSLASGAPSRFSGSGFGTDFTLTISSLQPDDFATYYCQQMGEWKAAFGGGTKLEIKRAAAH"}, "B2": {"name": "062A09 scFv (non-germlined) (scFv)", "scFv": "B1 scFv with I51V, S85G, F106Y, W228Y, K229N, A231T, F232I"}, "B3": {"name": "355B06 scFv (non-germlined) (scFv)", "scFv": "EVQLVQSGAEVKKPGASVKVSCQASGYTFTDYYMHWVRQAPGQGLEWVGWINPYTGSAFYAQKFRGRATMTRNTSINTAYMELSRLGSDDTAVYYCAREPEKFGESSGQLWGRGTMVTISSGGGGSGGGGSGGSGSAQAVLTQPSSVSGAPGQRVTISCTGSSSNIGPGYGVHWYQQLPGTAPKLLIYGDSNRPSGVPDRFSGSKSGTSASLAITGLQAEDEADYYCQSYDSGLSGYVFGTGTQLTVLSA"}, "B4": {"name": "368D04 scFv (non-germlined) (scFv)", "scFv": "EVQLVESGGGVVRPGGSLRLSCAASGFTFDDYGMNWVRQAPGKGLEWVSGVNWNGGTRDYAASVKGRFTISRDNAKNSLYLQMNSLRAEDTALYYCARGWYSGAAWNMGYWGRGTLVTVSSGGGGSGGGGSGGSGGGSGGGGGGSGGGGSAQAVLTQPSSVSGSPGQSITISCTGASGDVGAYNFVSWYQQHPGKTPKLIIYDVNKRPSGVSNRFSGSKSGNTASLTISGLQAEDESDYYCASLVSDFSVVFGGGTKVTVLGAAAH"}, "B5": {"name": "062A09 IgG (non-germlined) (antibody, V domains shown)", "VH": "QVQLVESGAEVKKPGASVKVSCKASGYTFTSYGISWVRQAPGQGLEWMGWVSAYTGNTNYAQKFQGRVTMTTDTSTSTAYMELRGLRSDDTAVYYCARDRGYYDAFDIWGQGTLVTVSS", "VL": "DIQMTQSPSTLSASIGDRVTITCRASEGIYHWLAWYQQKPGKAPKLLIYKASSLASGAPSRFSGSGFGTDFTLTISSLQPDDFATYYCQQMGEYNATIGGGTKLEIKR"}, "B6": {"name": "166B06 IgG (non-germlined) (antibody, V domains shown)", "VH": "EVQLVQSGAEVKKPGASVKVSCQASGYTFSDYYIHWVRQTPGQGFEWMGWVNPDTGGTRYAQKFQGWVTMTRDMSNTTAYMELPRLRDDDTAVYYCARDLTGFDPFDIWGQGTLVTVSS", "VL": "QSVLTQPPSVSVAPGKTATITCGGNNFRNKRVHWYQQRPGQAPVLVIYYDSDRPSGIPERFSGSRSGNTATLTISRVEAGDEADFYCQVWDLFNDNGVFGGGTKLTVLG"}, "B7": {"name": "166G05 IgG (non-germlined) (antibody, V domains shown)", "VH": "B6 VH", "VL": "B6 VL with L92F, F93L, N94T, N96S, V98S"}, "B8": {"name": "376B10 scFv (non-germlined) (scFv)", "scFv": "EVQLVQSGAEVKKPGASVKVSCQASGYTFSDYYIHWVRQTPGQGFEWMGWVNPDTGGTRYAQKFQGWVTMTRDMSNTTAYMELPGLRDDDTAVYYCARDLTGYDQYTAWGQGTLVTVSSGGGGSGGGGSGGGGSAQSVLTQPPSVSVAPGKTATITCGGNNFRNKRVHWYQQRPGQAPVLVIYYDSDRPSGIPERFSGSRSGNTATLTISRVEAGDEADFYCSTFDPFTDRPLFGGGTKLTVLGAAAH"}, "B9": {"name": "355E04 scFv (non-germlined) (scFv)", "scFv": "QVQLVQSGAEVKKPGASVKVSCKASGYTFTHYYMHWVRQAPGQGLEWVGWINPYTGGAFYAQKFQGRVTMTRDTSINTAYMELSRLGSDDTAVYYCAREPEKFDSPNAEIWGRGTMVTISSEGGGSGGGGSGGSGSAQAVLTQPSSVSGAPGQRVTISCTGSSSNIGAGYGVHWYQQLPGTAPKLLIYGNSNRPSGVPDRFSGSKSGTSASLAITGLQAEDEADYYCQSYDSSLSGYVFGTGTQLTVLSA"}, "B10": {"name": "356A11 scFv (non-germlined) (scFv)", "scFv": "QVQLVQSGAEVKKPGASVKVSCKASGYTFTNYYMHWVRQAPGQGLEWVGWINPYTGSAFYAQKFRGRVTMTRDTSINTAYMELSRLGSDDTAVYYCAREPEKFDSDDSDVWGRGTMVTVSGGGGSSGGGGSGGSGSAQAVLTPPSVSGAPGQRVTISCTGSSSNIGAGYGVHWYQQLPGTAPKLIIYGDSSRPSGVPDRFSGSKSGTSASLAITGLQAEDEADYYCQSYDNSLSGYVFGTGTQLTVLSA"}, "B11": {"name": "166G05 scFv (non-germlined) (scFv)", "scFv": "EVQLVQSGAEVKKPGASVKVSCQASGYTFSDYYIHWVRQTPGQGFEWMGWVNPDTGGTRYAQKFQGWVTMTRDMSNTTAYMELPRLRDDDTAVYYCARDLTGFDPFDIWGQGTLVTVSSGGGGSGGGGSGGGGSAQSVLTQPPSVSVAPGKTATITCGGNNFRNKRVHWYQQRPGQAPVLVIYYDSDRPSGIPERFSGSRSGNTATLTISRVEAGDEADFYCQVWDFLTDSGSFGGGTKLTVLGAAAH"}, "B12": {"name": "166B06 scFv (non-germlined) (scFv)", "scFv": "B11 scFv with G123S, F227L, L228F, T229N, S231N, S233V"}, "B13": {"name": "375G06 scFv (non-germlined) (scFv)", "scFv": "EVQLVQSGAEVKKPGASVKVSCQASGYTFSDYYIHWVRQTPGQGFEWMGWVNPDTGGTRYAQKFQGWVTMTRDMSNTTAYMELPRLRDDDTAVYYCARDLTGYDYYDRWGQGTLVTVSSGGGGSGGGGSGGGGGGSGGGGGGSGGGGSAQSVLTQPPSMSVAPGKTATITCGGNNFRNKRVHWYQQRPGQAPVLVIYYDSDRPSGIPERFSGSRSGNTATLTISRVEAGDEADFYCQVWDFLADEAMFGGGTKLTVLGAAAH"}, "B14": {"name": "097D09 scFv (non-germlined) (scFv)", "scFv": "EVQLVESGGGLVTPGGSLRLSCAASGFTFSDYYMSWVRQAPGRGLEWVSAISGSGGSTYYADSVKGRITISRDNAKNSLYLQMSSLRSEDTAVYYCARGLWVWDPLDYWGRGTLVTVSSGGGGSGGGGSGGGGSDIQMTQSPSTLSASIGDRVTITCRASEGIYHWLAWYQQKPGKAPKLLIYKASSLASGAPSRFSGSGFGTDFTLTISSLQPDDFATYYCQQYSEFAWTFGGGTKLEIKRAAAH"}, "B15": {"name": "354A08 scFv (non-germlined) (scFv)", "scFv": "QVQLVQSGAEKKPGASVKVSCKASGYTFTDYYMHWVRQAPGQGLEWVGWINPYTGGAFYAQKFRGRVTMTRDTSINTAYMELSRLGSDDTAVYYCAREPERFGDSTGQVWGRGTMVTVSSGGGGSGGGGSGGSRSAQAVLTQPSSVSGAPRQRVTISCTGSSSNIGAGYGVHWYQQLPGTAPKLLIYGNSNRPSGVPDRFSGSKSGTSASLAITGLQAEDEADYYCYHWDKEQSGYVFGTGTQLTVLSA"}, "B16": {"name": "087B03 scFv (non-germlined) (scFv)", "scFv": "EVQLVESGGGVVRPGGSLRLSCAASGFTFDDYGMNWVRQAPGKGLEWVSGVNWNGGTRDYAASVKGRFTISRDNAKNSLYLQMNSLRAEDTALYYCARGWYSGAAWNMGYWGRGTLVTVSSGGGGSGGGGSGGGGSAQAVLTQPSSVSGSPGQSITISCTGASGDVGAYNFVSWYQQHPGKTPKLIIYDVNKRPSGVSNRFSGSKSSNTASLTISGLQAEDESDYYCSSYTSTFSVVFGGGTKVTVLGAAAH"}},
  "note": "Changes are numbered by the printed parent chain.",
  "data": [
    {"molecular_target": "T1, human IL-22 (human, UniProt Q9GZX6 34-179)", "T1 sequence": "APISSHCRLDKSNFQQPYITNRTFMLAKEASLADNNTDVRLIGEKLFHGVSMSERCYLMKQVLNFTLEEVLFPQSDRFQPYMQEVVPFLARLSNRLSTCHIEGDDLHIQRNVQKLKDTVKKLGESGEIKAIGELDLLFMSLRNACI", "experiment": "cell-based or functional assay", "units": {"IC50 of scFv (pM) in BaF3-IL-22 proliferation assay": "pM", "IC50 of IgG (pM) in BaF3-IL-22 proliferation assay": "pM"}, "values": [
      {"binder": "B1", "IC50 of scFv (pM) in BaF3-IL-22 proliferation assay": 182},
      {"binder": "B2", "IC50 of scFv (pM) in BaF3-IL-22 proliferation assay": 267},
      {"binder": "B3", "IC50 of scFv (pM) in BaF3-IL-22 proliferation assay": 183},
      {"binder": "B4", "IC50 of scFv (pM) in BaF3-IL-22 proliferation assay": 186},
      {"binder": "B5", "IC50 of IgG (pM) in BaF3-IL-22 proliferation assay": 83},
      {"binder": "B6", "IC50 of IgG (pM) in BaF3-IL-22 proliferation assay": 71},
      {"binder": "B7", "IC50 of IgG (pM) in BaF3-IL-22 proliferation assay": 97},
      {"binder": "B8", "IC50 of scFv (pM) in BaF3-IL-22 proliferation assay": 104},
      {"binder": "B9", "IC50 of scFv (pM) in BaF3-IL-22 proliferation assay": 192},
      {"binder": "B10", "IC50 of scFv (pM) in BaF3-IL-22 proliferation assay": 124},
      {"binder": "B11", "IC50 of scFv (pM) in BaF3-IL-22 proliferation assay": 204},
      {"binder": "B12", "IC50 of scFv (pM) in BaF3-IL-22 proliferation assay": 460},
      {"binder": "B13", "IC50 of scFv (pM) in BaF3-IL-22 proliferation assay": 118},
      {"binder": "B14", "IC50 of scFv (pM) in BaF3-IL-22 proliferation assay": 298},
      {"binder": "B15", "IC50 of scFv (pM) in BaF3-IL-22 proliferation assay": 219},
      {"binder": "B16", "IC50 of scFv (pM) in BaF3-IL-22 proliferation assay": 212}
    ]}
  ]
}
